Assay results taken from US9504755B2, “Multi-arm polymeric alkanoate conjugates” (Nektar Therapeutics, priority 2008, dated 2016).

Assays:
Conditions in all cases: 37° C.
[1] = Stability in mouse plasma; type: in vitro ADME
Method: (§1) The objective of the study was to assess the stability of 4-ARM-PEG20K-BA-docetaxel in mouse, rat, dog, and human plasma.
(§2) 4-ARM-PEG20K-BA-docetaxel was spiked ([…]; 60 μM) into heparinized, pooled male mouse, rat, and dog plasma; mixed sex pooled human plasma; and phosphate buffered saline. Triplicate samples were incubated at 37° C. for 0, 15, 30, 60, 120, and 240 min. Aliquots were removed at each timepoint and analyzed for disappearance of 4-ARM-PEG20K-BA-docetaxel and appearance of docetaxel using the validated dog plasma analytical method.

Stability in rat plasma = type: in vitro ADME
Method: as §1, §2

Stability in dog plasma = type: in vitro ADME
Method: as §1, §2

[2] = Stability in human plasma; type: in vitro ADME
Method: as §1, §2

[3] = Stability in phosphate buffered saline; type: physicochemical
Method: as §1, §2

## 4-ARM-PEG20K-Butanoate-Linked Docetaxel Conjugate [4-ARM-PEG20K-BA-DOC]
[1]; 60 μM
  Conjugate remaining at 4 hr (%): 72%
  Docetaxel released at 4 hr (%): 20%
[1]; 4 hr
  Mass balance (%): 92%
Stability in rat plasma; 60 μM
  Conjugate remaining at 4 hr (%): 64%
  Docetaxel released at 4 hr (%): 20%
Stability in rat plasma; 4 hr
  Mass balance (%): 84%
Stability in dog plasma; 60 μM
  Conjugate remaining at 4 hr (%): 93%
  Docetaxel released at 4 hr (%): 3%
Stability in dog plasma; 4 hr
  Mass balance (%): 95%
[2]; 60 μM
  Conjugate remaining at 4 hr (%): 88%
  Docetaxel released at 4 hr (%): 4%
[2]; 4 hr
  Mass balance (%): 92%
[3]; 60 μM
  Docetaxel released at 4 hr (%): 0.6%
[3]; 4 hr
  Mass balance (%): 86%
